Like-named read-outs stand apart in the source and are kept apart here. Peptide text beside a SMILES is read from it.
How the values were obtained:
healthy volunteers = assay: Profile of Mood States (POMS) after drinks with different tryptophan sources (Example 6); format: in vivo, human; details: for mood changes (POMS total mood scores): after the intake, over the session
Experimental: Subjects were instructed to fast overnight; only water or tea without sugar was permitted. During five experimental morning sessions, subjects visited the laboratory to monitor plasma Trp/LNAA concentrations and mood following the intake of a drink containing different Trp or LNAA concentrations. The order of presentation of the various drinks was counterbalanced and the four experimental days were separated by a one-week period. On each experimental morning, a 312 ml drink was provided containing different tryptophan (Trp) or LNAA concentrations (Table 2). All drinks contained 0.10 g sweetener (acesulfame) and were filled up with plain water in order to reach 312 mL. A research assistant blind to the dietary conditions conducted the administration of the different drinks.
The POMS comprises five different subscales for mood; ranging from Anger, Depression, Fatigue and Tension that refer to a negative mood state, to Vigor concerning a positive mood.

[1] = design: species or system human; details: in vivo
Description: The aim of the present study was to investigate in healthy volunteers plasma Trp/LNAA profiles and mood after the consumption of different tryptophan containing preparations.
Eighteen healthy students (9 males and 9 females: age between 18-30 years) participated in the study. Exclusion criteria for participation were chronic and current illness, history of psychiatric or medical illness, use of medication or drugs, alcohol consumption (>2 units/day), metabolic-, hormonal- or intestinal diseases and irregular diets or deviant eating habits (assessed by health and life-style questionnaires). Subjects participating in the experiment were in the normal range for the Body-Mass Index (BMI in kg/m^2 between 20-25) and female subjects are matched for contraception. Women participated during their mid-late follicular phase (day 4-10), while women using contraception participated when they actually used the contraception pill. […] All subjects participating in the experiment signed an Informed Consent Form. This study was conducted according to the EC principles of Good Clinical Practice (GCP) adopted by the 52nd WMA General Assembly, Edinburgh, Scotland, October 2000.
Subjects were instructed to fast overnight; only water or tea without sugar was permitted. During […] experimental morning sessions, subjects visited the laboratory to monitor plasma Trp/LNAA concentrations and mood following the intake of a drink containing different Trp or LNAA concentrations. The order of presentation of the various drinks was counterbalanced and the four experimental days were separated by a one-week period. On each experimental morning, a 312 ml drink was provided containing different tryptophan (Trp) or LNAA concentrations (Table 2). All drinks contained 0.10 g sweetener (acesulfame) and were filled up with plain water in order to reach 312 mL. A research assistant blind to the dietary conditions conducted the administration of the different drinks.
Blood samples were collected in duplicate before and 15, 30, 60, 90, 120, 180 and 210 minutes after ingestion in 5 ml vacutainer tubes containing sodium heparine and were then centrifuged at 5000 rpm for 5 min at 4° C. The resulting supernatants were mixed with sulfasalicyl acid (4 mg/100 microliter) and directly stored at −80° C. until analysis. Plasma amino acid analysis was conducted with HPLC, making use of a 2-3 μm Bischof Spherisorb ODS II column as described by van Eijk et al (J. Chromatogr. 1993: 620: 143-148). The plasma Trp/LNAA ratios were calculated by dividing the plasma molar tryptophan concentration by the sum of the plasma molar concentrations of the large neutral amino acids valine, isoleucine, leucine, tyrosine and phenylalanine. Statistical analysis took place by means of repeated measures multivariate and univariate analyses of variance (MANOVA and ANOVA) using the General Linear Model (GLM: SPSS 12.0 for Windows). All statistics were evaluated at a significance level of P=0.05.

[2] = earlier studies (Markus et al., 2000; Booij et al., 2006); cited from earlier work
pepsin [3] = target: T1, pepsin (Sus scrofa, UniProt P00791); assay: Test for protease resistancy (pepsin pH 4, SDS-PAGE); format: in vitro ADME; details: pepsin 1% w/w, 2 hours at 37 degrees C
T1 construct: purchased Sigma
T1 sequence (P00791 60-385): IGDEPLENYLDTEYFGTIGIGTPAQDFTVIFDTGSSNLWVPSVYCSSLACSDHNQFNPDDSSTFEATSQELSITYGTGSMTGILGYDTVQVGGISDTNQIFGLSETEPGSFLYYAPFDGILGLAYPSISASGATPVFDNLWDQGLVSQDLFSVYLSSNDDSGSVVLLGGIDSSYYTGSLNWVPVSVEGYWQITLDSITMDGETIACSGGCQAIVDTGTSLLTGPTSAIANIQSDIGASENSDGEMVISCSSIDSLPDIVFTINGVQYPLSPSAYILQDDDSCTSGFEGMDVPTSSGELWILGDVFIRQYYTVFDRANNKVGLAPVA
Experimental: To test its digestibility in the human stomach, a 5% (w/w) solution of the intact protein was incubated with pepsin (Sigma; 1% w/w pepsin to intact protein) for 2 hours at 37 degrees C. in a Mc Ilvane buffer (0.2 M citric acid plus Na2HPO4) pH 4.0. The degree of protease resistancy is defined as the percentage of the protein that is not affected by the pepsin incubation. “Not affected” meaning that the molecular weight of the protein has not changed as a result of the pepsin incubation; “percentage of the protein” meaning the area under the curve after digestion times 100, divided by the area under the curve prior to digestion; “area under the curve” is the area of the protein having the initial molecular weight as provided by the quantitative analysis method used (see further).
Molecular weights are compared according to SDS-PAGE followed by staining according to the protocol specified hereunder. After staining of the gel, a digital image is prepared using the OptiGo imaging system (Isogen Life Science; www.isogen-life-science.com) followed by the quantitative analysis of selected protein bands using Totallab TL 100, version 2006 software (Nonlinear Dynamics Ltd; www.nonlinear.com) running under Windows XP.
All materials used for SDS-PAGE and staining were purchased from Invitrogen (Carlsbad, Calif., US). […] Staining was performed using Simply Blue Safe Stain (Collodial Coomassie G250).
Together with beta-lactoglobulin, alpha-lactalbumin forms the major protein constituent of whey. Because of its high Trp/LNAA ratio, isolated alpha-lactalbumin fractions as well as alpha-lactalbumin hydrolysates have gained popularity for enhancing plasma tryptophan levels. […] According to the present application, a pepsin-resistant molecule with a high Trp/LNAA ratio is essential to maintain high plasma Trp/LNAA ratios longer term. […] This was illustrated in the following experiment. […] After incubation both solutions were heated for 5 minutes at 80 degrees C. to terminate the reaction and small samples were subjected to SDS-PAGE (see Materials & Methods) to test the integrity of the various pepsin treated molecules.

pepsin [4] = target: T1, pepsin; assay: Lysozyme hydrolysis by pepsin (in vitro digestibility, DH); format: in vitro ADME; details: pH start 2.8, 2 hours at 37 degrees C
Experimental: (§1) Both incubations were carried out under pH conditions that are prevalent in the stomach (pepsin) and duodenum (trypsin/chymotrypsin). […] To prevent major pH changes as the result of the ongoing protein hydrolysis, incubation was carried out in a Mc Ilvane buffer (0.2 M citric acid plus Na2HPO4).

[5] = tested on: trypsin/chymotrypsin mixture; assay: Lysozyme hydrolysis by a trypsin/chymotrypsin mixture (in vitro digestibility, DH); format: in vitro ADME, Porcine; details: pH start 7.2, 2 hours at 37 degrees C
Experimental: as §1

[6] = Kinetics of plasma Trp/LNAA ratio after hydrolysed, intact or mixed lysozyme (Example 11); format: in vivo, human; details: inferred from area-under-the-curve
Description: Exclusion criteria were: chronic and current illness, at the discretion of the investigator; history of psychiatric disorders; use of selective serotonin reuptake inhibitors (SSRI); use of supplements targeting the central nervous system, such as supplements containing tryptophan, ephedrine, or St John's wort; egg allergy; drug abuse; participation in any other study involving investigational or marketed products concomitantly; intolerance to artificial sweeteners; any (history of) gastrointestinal disease that interferes with gastrointestinal function, at the discretion of the investigator; use of medication targeting the gastro-intestinal tract, such as antacids. Finally, for women, pregnancy or the use of a medically not accepted contraceptive method is an exclusion criterion as well. All subjects participating in the experiment signed an Informed Consent Form.
The study was performed according to a randomized, double-blind, crossover design with a washout period between the intake of the different treatments of three days at least.
The drinks were presented as sterile products in bottles with straws. […] A research assistant blind to the dietary conditions conducted the administration of the different drinks.
The subjects visited the site between 8 and 9 am, having fasted for at least 8 hours. A flexible cannula for blood drawings was inserted in their non-dominant forearm. […]

[7] = target: T2, microbial subtilisin (EC 3.4.21.62) (Bacillus licheniformis, UniProt P00780); assay: Susceptibility of lysozyme to subtilisin (Protex 6L) hydrolysis at elevated pH, DH; format: physicochemical
T2 construct: purchased Genencor (Leiden, The Netherlands) Protex 6L
T2 sequence (P00780 106-379): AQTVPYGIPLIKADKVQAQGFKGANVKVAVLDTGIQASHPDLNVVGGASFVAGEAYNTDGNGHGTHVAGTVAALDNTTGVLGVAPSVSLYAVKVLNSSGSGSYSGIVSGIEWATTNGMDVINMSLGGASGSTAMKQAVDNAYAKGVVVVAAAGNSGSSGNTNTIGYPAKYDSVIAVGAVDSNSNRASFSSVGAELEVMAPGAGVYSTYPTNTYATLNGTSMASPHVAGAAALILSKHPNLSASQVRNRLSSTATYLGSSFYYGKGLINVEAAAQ
Experimental: The Degree of Hydrolysis (DH) as obtained during incubation with the various proteolytic mixtures was monitored using a rapid OPA test (Nielsen, P. M.; Petersen, D.; Dambmann, C. Improved method for determining food protein degree of hydrolysis. Journal of Food Science 2001, 66, 642-646).
The incubation was carried out for 3 hours at 60 degrees C. with a constant adjustment of the pH using 1M NaOH. The incubations yielded slightly turbid solutions without any significant precipitates. After a heating step to inactivate the subtilisin activity, the DH values of the various incubations were measured according to the protocol described in the Materials & Methods section. […] The pH 7.0 incubation yielded a DH of 6.3, the pH 8.0 incubation a DH of 11.2 and the pH 9.0 incubation a DH of 16.4.

What does the source list for N[C@@H](CO)C(=O)N[C@@H](Cc1c[nH]c2ccccc12)C(=O)O [SYN, Ser-Trp] (H-Ser-Trp-OH)?
mood changes (POMS total mood scores) (healthy volunteers): not significant; increase in plasma Trp/LNAA ratio [1]: 263%

What does the source list for N[C@@H](Cc1c[nH]c2ccccc12)C(=O)O [TRP, L-tryptophan]?
mood (POMS total mood scores) (healthy volunteers; 60 min after the intake): Comparable improvements of mood; plasma Trp/LNAA ([1]; both, human, 0 min): 0.11; plasma Trp/LNAA ([1]; both, human, 30 min): 0.12; plasma Trp/LNAA ([1]; both, human, 60 min): 0.29; plasma Trp/LNAA ([1]; both, human, 90 min): 0.31; increase in plasma Trp/LNAA ratio ([1]; both, human, 120 min): 191%; plasma Trp/LNAA ([1]; both, human, 120 min): 0.32; plasma Trp/LNAA ([1]; both, human, 180 min): 0.24; plasma Trp/LNAA ([1]; both, human, 210 min): 0.20

What does the source list for “ALAC: intact alpha-lactalbumin obtained as Biopure (>90% alpha-lactalbumin) from Davisco Foods; in Example 10 part of whey protein (Bipro)”?
mood changes (POMS total mood scores) (healthy volunteers): no mood changes; increase in plasma Trp/LNAA ratio [1]: 67%; increases in plasma Trp/LNAA as previously found [2]: 50-70%; quantity of intact protein after incubation with pepsin (SDS-PAGE) (pepsin [3]): almost completely degraded; protease resistant according to the test (more than 50% of protein with original molecular weight present) (pepsin [3]; listed as alpha-lactoglobulin): not “protease resistant”; protease resistant according to the test (more than 50% of protein with original molecular weight present) (pepsin [3]; listed as intact alpha-lactalbumine): not protease-resistant

Which results are given for “beta-lactoglobulin: whey protein constituent of Bipro (Davisco), very low Trp/LNAA ratio (0.04)”?
protease resistant according to the test (more than 50% of protein with original molecular weight present) (pepsin [3]): protease resistant; quantity of intact protein after incubation with pepsin (SDS-PAGE) (pepsin [3]): remains largely intact

With “lysozyme: hen egg lysozyme (EC 3.2.1.17), intact protein, obtained as Delvozyme L or Delvozyme G from DSM Food Specialties” as the molecule, how does the “DH end (%)” value (pepsin [4]) read?
Its value is 2.4%.

And the “DH end (%)” value [5]?
Its value is 1.3%.

And the “digestion and uptake into the blood” value [6]?
The value was “completely digested and taken up into the blood”.

And the “protease resistant according to the test (more than 50% of protein with original molecular weight present)” value (pepsin [3])?
The value was “protease resistant”.

And the “quantity of intact protein after incubation with pepsin (SDS-PAGE)” value (pepsin [3])?
Its value is “not significantly diminished”.

What about the DH ([7]; pH 7.0, 3 hours at 60 degrees C) of the same molecule?
Its DH is 6.3.

What about the DH ([7]; pH 8.0, 3 hours at 60 degrees C) of the same molecule?
Its DH is 11.2.

What about the DH ([7]; pH 9.0, 3 hours at 60 degrees C) of the same molecule?
The DH was 16.4.

Source: US9770493B2 (DSM IP ASSETS B.V., priority 2008, dated 2017)
